# From US20160068605A1 (Janssen / Centocor, published 2016)
# Numbering of substitutions follows the chain as printed. Numbers in names are those of the source. Where “and” joins values, the source holds several entries; their conditions need not be identical. Equal values may be shown once.
# T1: cyno CD123 ECD displayed on pDisplay-transfected cells (cynomolgus monkey)
# T1 construct: ECD anchored on the surface of stably transfected HEK293 cells; also called cynoCD123 SP1 cells; cynoCD123 cells
# T1 chain: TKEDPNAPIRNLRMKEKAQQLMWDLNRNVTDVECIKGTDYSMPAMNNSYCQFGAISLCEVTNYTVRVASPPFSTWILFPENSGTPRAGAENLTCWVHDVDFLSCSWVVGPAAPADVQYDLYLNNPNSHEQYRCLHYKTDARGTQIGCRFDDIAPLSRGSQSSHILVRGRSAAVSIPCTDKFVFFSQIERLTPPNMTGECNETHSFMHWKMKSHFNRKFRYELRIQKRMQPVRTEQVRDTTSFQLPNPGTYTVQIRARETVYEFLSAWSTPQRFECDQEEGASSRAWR
# T2: Recombinant human CD123 SP2 ECD protein (human, UniProt P26951 101-303)
# T2 construct: also called rhCD123 SP2; CD123 ECD SP2
# T2 sequence: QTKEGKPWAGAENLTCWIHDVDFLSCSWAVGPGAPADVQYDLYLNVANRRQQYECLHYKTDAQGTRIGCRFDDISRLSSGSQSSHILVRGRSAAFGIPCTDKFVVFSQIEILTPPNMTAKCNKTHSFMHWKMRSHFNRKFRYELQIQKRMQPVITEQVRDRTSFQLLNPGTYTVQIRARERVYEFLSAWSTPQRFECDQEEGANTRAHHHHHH
# T3: Recombinant human CD123 SP1 ECD-His tag protein (human, UniProt P26951 20-305)
# T3 construct: bought from R&D Systems (#301-R3/CF); biotinylated for some assays; also called rhCD123 SP1; huCD123 ECD SP1
# T3 sequence: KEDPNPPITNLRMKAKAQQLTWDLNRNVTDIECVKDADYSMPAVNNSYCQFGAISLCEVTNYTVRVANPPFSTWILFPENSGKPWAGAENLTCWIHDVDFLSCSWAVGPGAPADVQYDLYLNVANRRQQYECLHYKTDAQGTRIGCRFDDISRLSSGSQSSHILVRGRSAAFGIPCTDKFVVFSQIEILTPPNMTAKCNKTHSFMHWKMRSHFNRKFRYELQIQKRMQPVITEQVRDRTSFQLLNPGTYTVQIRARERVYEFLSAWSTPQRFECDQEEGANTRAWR
# B1: I3RB33 (antibody, IgG1, V domains shown)
# VH: QVQLVQSGAEVKKPGSSVKVSCKASGGTFSSYGISWVRQAPGQGLEWMGGIIPIFGTANYAQKFQGRVTITADESTSTAYMELSSLRSEDTAVYYCARGYWHWNYDYLDYWGQGTLVTVSS
# VL: EIVLTQSPATLSLSPGERATLSCRASQSVNDWLAWYQQKPGQAPRLLIYGASNRATGIPARFSGSGSGTDFTLTISSLEPEDFAVYYCQQYKRAPYTFGQGTKVEIK
# notes: IgG1
# B2: I3RB16 (antibody, IgG1, V domains shown)
# VH: QVQLVQSGAEVKKPGSSVKVSCKASGGTFSSYAISWVRQAPGQGLEWMGGIIPIFGTANYAQKFQGRVTITADESTSTAYMELSSLRSEDTAVYYCARGAVWGDQWFDYWGQGTLVTVSS
# VL: not shown
# notes: IgG1
# B3: I3RB1 (antibody, IgG1, V domains shown)
# VH: EVQLLESGGGLVQPGGSLRLSCAASGFTFSDYGMSWVRQAPGKGLEWVSVIRGGGSSKYYADSVKGRFTISRDNSKNTLYLQMNSLRAEDTAVYYCAKHSGSFRFNELDYWGQGTLVTVSS
# VL: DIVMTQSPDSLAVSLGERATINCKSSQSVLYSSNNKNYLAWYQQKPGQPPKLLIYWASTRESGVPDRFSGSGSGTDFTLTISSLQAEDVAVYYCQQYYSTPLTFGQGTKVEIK
# notes: IgG1; also called I3RB01
# B4: I3RB19 (antibody, IgG1, V domains shown)
# VH: EVQLLESGGGLVQPGGSLRLSCAASGFTFSNYAMSWVRQAPGKGLEWVSGIRGNGSSTYYADSVKGRFTISRDNSKNTLYLQMNSLRAEDTAVYYCAKGGPIGARFPDYLDYWGQGTLVTVSS
# VL: DIQMTQSPSSLSASVGDRVTITCRASQSIGDFLNWYQQKPGKAPKLLIYYASSLQSGVPSRFSGSGSGTDFTLTISSLQPEDFATYYCQQSYSTPLTFGQGTKVEIK
# notes: IgG1; also called 13RB19
# B5: I3RB30 (antibody, IgG1, V domains shown)
# VH: QVQLVQSGAEVKKPGSSVKVSCKASGGTFSSYAISWVRQAPGQGLEWMGWIIPIFGTANYAQKFQGRVTITADESTSTAYMELSSLRSEDTAVYYCARLVYSSDFDYWGQGTLVTVSS
# VL: B1 VL with N30A, D31N, G50Y, K92D, R93G, A94W, Y96R
# notes: IgG1; also called 13RB30
# B6: I3RB40 (antibody, IgG1, V domains shown)
# VH: B2 VH with A100Q, V101W, G103A, Q105T
# VL: B1 VL with N30A, D31K, K92H, R93T, Y96W
# notes: IgG1
# B7: CD3B146 (antibody, IgG1, V domains shown)
# VH: EVQLVESGGGLVQPGGSLRLSCAASGFTFNTYAMNWVRQAPGKGLEWVARIRSKYNNYATYYAASVKGRFTISRDDSKNSLYLQMNSLKTEDTAVYYCARHGNFGNSYVSWFAYWGQGTLVTVSS
# VL: QTVVTQEPSLTVSPGGTVTLTCRSSTGAVTTSNYANWVQQKPGQAPRGLIGGTNKRAPGTPARFSGSLLGGKAALTLSGVQPEDEAEYYCALWYSNLWVFGGGTKLTVL
# notes: IgG1 constant region with L234A, L235A, F405L; human lambda constant region; also called CD3B146 hu IgG1-AlaAla F405L
# B8: CD123 null 2 (bispecific antibody, human IgG4 S228P, lambda, F234A L235A)
# heavy: EVQLLESGGGLVQPGGSLRLSCAASGFTFNTYAMNWVRQAPGKGLEWVARIRSKYNNYATYYADSVKGRFTISRDNSKNTLYLQMNSLRAEDTAVYYCVKHGNFGNSYVSWFAYWGQGTLVTVSSASTKGPSVFPLAPCSRSTSESTAALGCLVKDYFPEPVTVSWNSGALTSGVHTFPAVLQSSGLYSLSSVVTVPSSSLGTKTYTCNVDHKPSNTKVDKRVESKYGPPCPPCPAPEAAGGPSVFLFPPKPKDTLMISRTPEVTCVVVDVSQEDPEVQFNWYVDGVEVHNAKTKPREEQFNSTYRVVSVLTVLHQDWLNGKEYKCKVSNKGLPSSIEKTISKAKGQPREPQVYTLPPSQEEMTKNQVSLTCLVKGFYPSDIAVEWESNGQPENNYKTTPPVLDSDGSFLLYSKLTVDKSRWQEGNVFSCSVMHEALHNHYTQKSLSLSLGK
# light: QAVVTQEPSLTVSPGGTVTLTCRSSTGAVTTSNYANWVQQKPGQAPRGLIGGTNKRAPGTPARFSGSLLGGKAALTLSGAQPEDEAEYYCALWYSNLWVFGGGTKLTVLGQPKAAPSVTLFPPSSEELQANKATLVCLISDFYPGAVTVAWKADSSPVKAGVETTTPSKQSNNKYAASSYLSLTPEQWKSHRSYSCQVTHEGSTVEKTVAPTECS
# VH: not shown
# VL: not shown
# notes: also called B21M IgG4 x CD3B217
# B9: CD123 null 1 (bispecific antibody, human IgG4 S228P, lambda, F234A L235A)
# heavy: B8 heavy with L5V, D64A, N76D, T80S, R89K, A90T, V99A, K100R
# light: B8 light with A2T, A80V
# VH: not shown
# VL: not shown
# notes: also called B21M IgG4 x CD3B219
# B10: CD123 null 3 (bispecific antibody, human IgG4 S228P, lambda, F234A L235A)
# heavy: B8 heavy
# light: B8 light with A2T, A80V
# VH: not shown
# VL: not shown
# notes: also called B21M IgG4 x CD3B218
# B11: I3RB36 (antibody, IgG1, V domains shown)
# VH: B1 VH with G99D, Y100L, W101H, H102V, N104A, D106S, Y107N, L108F
# VL: not shown
# notes: IgG1
# B12: I3RB5 (antibody, IgG1, V domains shown)
# VH: EVQLLESGGGLVQPGGSLRLSCAASGFTFSGYWMSWVRQAPGKGLEWVSGINYDGGSTYYADSVKGRFTISRDNSKNTLYLQMNSLRAEDTAVYYCAKDHFLAEFDYWGQGTLVTVSS
# VL: not shown
# notes: IgG1; also called I3RB05
# B13: I3RB20 (antibody, IgG1, V domains shown)
# VH: B1 VH with G33A, G99D, Y100D, W101Q, H102I, N104G, Y105S, D106Y, Y107H
# VL: not shown
# notes: IgG1
# Target: T1, cyno CD123 ECD displayed on …
# Experiment: MSD cell binding on 293F pDisplay cells; fold change over background; parental 293F cells as control
# Description: The object of the screening assay was to identify antibodies that bound to cells expressing hCD123 SP1 and SP2 as well as cross reactivity with cells expressing cynoCD123 SP1.
# Cells were immobilized and phages were assayed in triplicate. […] 5000 cells per well were plated into a 384 well plate (MA6000, cat. L21XB, MSD) and allowed to adhere for 2 hr. Cells were then blocked with 20% FBS in PBS (Gibco) for 15 mins. Antibody supernatants were then added and left at RT for 1 hr. Cells were washed 3 times with PBS and a ruthenium labeled secondary antibody (Jackson Immuno Research) was then added at 1 μg/mL and incubated for 1 hr at room temperature. A further washing step was then applied and 35 μL per well of MSD Read buffer T (surfactant free) was then added and incubated for 30 min for detection. Plates were then read using Sector Imager 2400 (MSD). Data was normalized to controls and graphed using GraphPad Prism Version 5. A positive binder was determined to be a hit with a signal 3× greater than background (FIGS. 2A, B and C).
row,Binder,binding result
1,B1,binds
2,B2,no binding (tested: 10 µg/mL)
3,B3,no binding (tested: 10 µg/mL)
4,B4,no binding (tested: 10 µg/mL)
5,B5,no binding (tested: 10 µg/mL)
6,B6,no binding (tested: 10 µg/mL)

# Target: T4, cell-surface CD3 epsilon on primary human T cells (human, UniProt P07766 23-207)
# T4 construct: whole, on cells; part of the CD3/TCR complex on the cells
# Experiment: flow cytometry competition with labeled CD3B146 on T cells
# Excerpt: (§1) The format involved competition binding using a fixed concentration of labeled anti-CD3 mAb of known affinity and increasing concentrations of unlabeled test Abs (Ashkenazi A et al. PNAS: 88:10535, 1991.).
# T4 sequence (P07766 23-207): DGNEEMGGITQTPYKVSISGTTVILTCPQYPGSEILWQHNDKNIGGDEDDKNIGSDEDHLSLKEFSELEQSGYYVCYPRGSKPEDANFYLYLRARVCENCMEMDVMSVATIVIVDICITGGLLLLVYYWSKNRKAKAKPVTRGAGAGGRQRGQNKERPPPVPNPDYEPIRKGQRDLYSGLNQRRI
row,Binder,Kd [nM]
1,B7,3.2
2,B8,266
3,B9,13.2
4,B10,200

# Target: T5, cell-surface CD3 epsilon on primary cynomolgus T cells (cynomolgus monkey, UniProt Q95LI5 22-198)
# T5 construct: whole, on cells; also called cynomolgus CD3e; Cyno T-cells
# Experiment: as above
# Excerpt: as §1
# T5 sequence (Q95LI5 22-198): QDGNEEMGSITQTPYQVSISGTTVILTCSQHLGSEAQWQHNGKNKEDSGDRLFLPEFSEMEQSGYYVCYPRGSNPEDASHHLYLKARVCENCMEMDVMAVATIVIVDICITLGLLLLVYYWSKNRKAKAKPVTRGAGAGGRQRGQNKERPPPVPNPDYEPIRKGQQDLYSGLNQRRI
row,Binder,Kd [nM]
1,B7,1.1
2,B8,217
3,B9,13.4
4,B10,237

# Target: T2, Recombinant human CD123 SP2 ECD protein
# Experiment: SPR ProteOn, captured mAb
# Description: (§2) The biosensor surface was prepared by covalently coupling Goat anti-Human IgG (Fc) to the surface of a GLC chip (BioRad) using the manufacturer instructions for amine-coupling chemistry. […] The RU immobilized also included a goat anti-mouse Fc antibody that was added to capture other antibodies not included in the ones reported here. Since the mixture was 1:1 about 50% of these RU immobilized are expected to be goat anti-human Fc. The kinetic experiments were performed at 25° C. in running buffer (PBS pH 7.4, 0.005% P20, 3 mM EDTA). […] The reference spots (Goat anti-Human IgG (Fc)-modified surface) containing no candidate captured were used as a reference surface. Capture of mAb was followed by 3 min injection (association phase) of antigen at 40 μL/min, followed by 10 min of buffer flow (dissociation phase). […] Data was processed on the instrument software. Double reference subtraction of the data was performed by subtracting the curves generated by buffer injection from the reference-subtracted curves for analyte injections. Kinetic analysis of the data was performed using 1:1 Langmuir binding model with group fit. The result for each mAb was reported in the format of Kₐ (kon or on-rate), Kd (koff or off-rate), KD (Equilibrium dissociation constant) (Table 5).
Binder,binding result,Kd,koff [s⁻¹],kon [M⁻¹ s⁻¹]
B1,no binding (tested: 400 nM),,,
B4,,48.3 nM,0.0161,334000
B5,,330 nM,0.048,145000
B11,no binding (tested: 400 nM),,,
B6,no binding (tested: 400 nM),,,
B12,,4.88 nM and 4.09 nM,,

# Target: T3, Recombinant human CD123 SP1 ECD-His tag …
# Experiment: SPR ProteOn, captured mAb
# Description: as §2
Binder,Kd,koff [s⁻¹],kon [M⁻¹ s⁻¹]
B1,4.23 nM,0.00177,417000
B4,119 nM,0.0251,211000
B5,4.17 nM,0.00302,725000
B13,1.68 nM,0.00106,631000
B11,2.47 nM,0.00166,675000
B6,6.02 nM,0.00346,574000
B12,12.8 nM and 12.9 nM,,
